# Source: the RNAGym collection of RNA variant scans (doi:10.1073/pnas.2313332121)
# This sample holds only a part of the variants without activity.
# B1: TPR 5TU (parent)
# chain: GGAUCUUCUCGAUCUAACAAAAAAGACAAAUCUGCCACAAAGCUUGAGAGCAUCUUCGGAUGCAGAGGCGGCAGCCUUCGGUGGCGCGAUAGCGCCAACGUUCUCAACUAUGACACGCAAAACGCGUGCUCCGUUGAAUGGAGUUUAUCAUG
# Variants of: B1
# Experiment: polymerase ribozyme fitness, log enrichment relative to wild type (log ratio); higher = more active; in vitro selection for triplet polymerase activity
# Method in brief: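 Each subunit of a heterodimeric triplet polymerase ribozyme was mutagenized into a library by PCR, transcribed, and subjected to one round of in vitro selection, run in triplicate. Libraries were annealed with a biotinylated primer, the partner subunit and triplets, incubated frozen at −7 °C, and extended constructs were gel-excised, captured on streptavidin beads and recovered by RT-PCR. Input and output libraries were sequenced on Illumina, keeping genotypes with ≥10 input reads and ≥1 read per output. Fitness is log base 2 of genotype enrichment divided by wild-type enrichment, from inverse-variance-weighted replicate averages.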
row,Variant,polymerase ribozyme fitness (log ratio)
1,C54U G136A,0.306
2,G81U C85U A115C G136C,-3.36
3,C51U C95G A110U G141U,≤ -4.2
4,U13C G59C U61G C79U G84A C132A,-4.17
5,G74C G92U,-4.02
6,U7A U31G G81C G84U C95U A107G G128U A137G,≤ -4.2
7,C54U G86A,-1.18
8,G50U U56A G83A,-0.268
9,C57G G94C A98G C105U,-0.386
10,A52C G67C G83U C108U G124U,≤ -4.2
11,U4G C38U G58A C95U C96U U127C,-3.54
12,U44G G58C G59C U61A G94C,≤ -4.2
13,G86A C149A,≤ -4.2
14,G58A G117U,1.04
15,A91U C114U U148G,≤ -4.2
16,A26U G46C U55A C93U C103A A106G C114A,≤ -4.2
17,G58U A150C,-3.57
18,U90G,≤ -4.2
19,G92U A137G U145C,-1.11
20,C27G A37G C72A C105A,-4.13
21,A41U C103G A113G C125A,≤ -4.2
22,C32G C36U A64U C96U A107C G117U U134C A150C,≤ -4.2
23,G34C C87G U90G G92A U148A,≤ -4.2
24,A19G U148G,-3.88

row,Variant,polymerase ribozyme fitness (log ratio)
1,A29U A30U A37U A47G G50C A97U G100U A106C,≤ -4.2
2,C76U A91U G92A,-4.02
3,G59A G94A A150C,≤ -4.2
4,G86A G143C,-2.14
5,A37G G50C,-3.93
6,G86A A150C,≤ -4.2
7,U109A G141A A142U,≤ -4.2
8,U13C G83C C96U C114U,-4.13
9,C54G C103G,≤ -4.2
10,C51G U56G C93U,-3.95
11,U61A G94U A106G,-2.71
12,A17G C51U U55G C79U G83U C95A C118G U145C,≤ -4.2
13,A89G,-0.999
14,G68U C85A A110G C132G A137G G141C U151G,≤ -4.2
15,C72U C85G,-1.95
16,A20U G62U G86A A107U G140A,≤ -4.2
17,U55A C63G C76U U78G G92C G136U G141C,≤ -4.2
18,C85A A137G,-2.96
19,C35G G83C A91C C108U G136U,≤ -4.2
20,A24U,0.541
21,C54U U56C A73U,-1.06
22,G34A U77G C87A A91C C108U G133A,≤ -4.2
23,A3U A12G A22C A37U A47G A97G,-3.5
24,U55A C57U C85G G94C C99G C149G,≤ -4.2

row,Variant,polymerase ribozyme fitness (log ratio)
1,C35A G42U G48A G68A A106C C116U A120U G141A,≤ -4.2
2,G59C A60G C69U,-2.47
3,G50C A122C G143A,-4.06
4,C35U C96U,-0.126
5,G71U G84U U101C G117U C123U,-4.15
6,A12C G71U C93U A97G C103U C131G G141C,≤ -4.2
7,A41C C95A,-0.7
8,G42A A49G A64G A107U C114U,≤ -4.2
9,A3C U4A A121G G141A A142C,-4.03
10,U45A G126U,-3.51
11,A52U G83A U90C A106U U127A,≤ -4.2
12,A22U A30G G46C G50C A52C U55G G83A G94A,≤ -4.2
13,G59C U78C G83A,-0.666
14,A3C C69A C87G U146C C149U U151G,≤ -4.2
15,A20U A22C U82G G86U U101G C103G G143U,≤ -4.2
16,G81A U148C,-1.48
17,A21U A26C G141A,-3.34
18,A22C A23C C36G C79A C125A G140U,-3.55
19,A37U G80C G81C U102A A110U C118G A120U G133U,≤ -4.2
20,G34U G58U G74U G81A U102A U104C,≤ -4.2
21,U44G C51U G74A G94C A120U C149G,≤ -4.2
22,A24G C99U,-3.56
23,C27G C54U C76G U144G,≤ -4.2
24,U55A A66C U77A C87A,≤ -4.2

row,Variant,polymerase ribozyme fitness (log ratio)
1,G50U U102A A142U,-2.57
2,C38U G80C C85U G100U,≤ -4.2
3,C93A C95U,-3.37
4,C14G U148A,-4.14
5,A40C U82G G94A,0.746
6,G83U U139G,-0.239
7,A40C G92C,-1.84
8,G84U C103U A137C,≤ -4.2
9,G59A G74A,-3.23
10,U45G G84U,-1.97
11,G81A A97U,-0.297
12,G50U C57U G84U C103U,-2.21
13,A20C C36U C85G C103G,≤ -4.2
14,U6A C8A A19U A20U C72U U77A U101A,≤ -4.2
15,A40U C63U G70C,-2.97
16,A21C C87U A147U,0.884
17,A52C C85G C87U G133A G143C,-4.07
18,G25A U31A U56A G58A A60C C95U U135A,-1.75
19,A39U C69U C95U C129G,≤ -4.2
20,C32G A49U G65U C93U C99G A110U A147U,≤ -4.2
21,A52C G83U,-2.01
22,C38U G62U C96G,-1.8
23,U4C G42A A49C G50C C51U C79G A91U A121G,≤ -4.2
24,A17G A22C U61A G84U C96U U109A U111A G141A,≤ -4.2

row,Variant,polymerase ribozyme fitness (log ratio)
1,A30U G94U,≤ -4.2
2,G46A G59C C76U C96U C116U,≤ -4.2
3,U6A G42C A49C A52C C75U C85U A91U,≤ -4.2
4,C57A G86U C123U C125U,-0.745
5,G48C A49C A122U,-3.93
6,U6A A12C C87G A89U,-3.27
7,C32G C54U A73C C79U C87G U145G,≤ -4.2
8,A49C C103A,-3.96
9,A12C A29U G68C A73C G80U G84C,≤ -4.2
10,A49C U53A A106G,≤ -4.2
11,A22U G126A,1.07
12,A28C A30G C93U C103U,-4.06
13,C38U A47C A64C U78G G84C A97C C108U,≤ -4.2
14,A17C A20C C108G,≤ -4.2
15,G84A C118A U146C,-1.34
16,G50A G71C U82G C85G,≤ -4.2
17,G124U A142C,-1.75
18,C38U C93A A119C A142U,-3.54
19,A22U C95A C96A C99U,-1.54
20,G58C C87U A115G C116G A121U G136U,-4.12
21,G70A A110G A142G,-4.14
22,C5U U56A C75U G83C,-0.766
23,C54G C76A A89C A98U A115U U151A,≤ -4.2
24,A29U,-3.4

row,Variant,polymerase ribozyme fitness (log ratio)
1,U55G C69A C99U,-0.89
2,C5U A28C A64U G84A,≤ -4.2
3,A17G A39G U56A C85G A115G,-3.92
4,A12U A26C C36U,-3.95
5,C51G A91U,≤ -4.2
6,G68U,-3.71
7,A16U A30C U44A G88A C105U U109A,≤ -4.2
8,A21U G68C C69G C116U,≤ -4.2
9,C76U C85G A147C,-0.612
10,U15G A28G C79A G124U,≤ -4.2
11,A73C A91G C116U,≤ -4.2
12,G83A C118A C129A,-3.64
13,A17G G100U,-4.01
14,A47C U56A C87A C93G A121U C132G G143A U144C,≤ -4.2
15,C8A G11A C63U G83C U130G G152C,≤ -4.2
16,C69A C87A A106C G140A,≤ -4.2
17,G48C G50U G59U U82A G92C,-3.41
18,C38A G84A G86C G117U,≤ -4.2
19,G70C G83C C105U C125U,≤ -4.2
20,A47G U55A C63G G84C,≤ -4.2
21,A21G A41U A64U C85G A98U,≤ -4.2
22,U31G G65A,-1.83
23,C35G C69A C76A C118G U127C,≤ -4.2
24,G50C A64C U82G C87G A106U A122C,≤ -4.2

row,Variant,polymerase ribozyme fitness (log ratio)
1,U31A G58C U61A C87G C96U C99U C114G A150G,≤ -4.2
2,U56A C103G,-0.914
3,C69G C99A A115G,-3.71
4,A40U C93U U101G G128U,-4.04
5,G70U C76A,-4.19
6,A64G C69G C75A C85A A89U C93A U104G,≤ -4.2
7,C35U G59C G81A G83A A110G G133C,≤ -4.2
8,U15A A26C G34U C105G G143C,≤ -4.2
9,C38U A52G C93G G117U,-3.91
10,A60C C93U,-2.64
11,C18U A52U,-1.92
12,A37U A142G G152U,-4.13
13,A30U U44A C85A A110C U111C,≤ -4.2
14,A24U G94A G143U,-3.4
15,G67U A120U,-2.15
16,C14U C57U,-1.27
17,A52G C57G A73U G84A,-3.44
18,A19U A21C,-0.908
19,U53A A97C A113G,-3.54
20,G128A G133A U134C A150G,-3.52
21,C14G A52G C75U C85U U144C,-3.71
22,G128U U144C,-3.96
23,U33G G58U A91C G143U,-3.87
